Results as given in publication PMC4712875.

Molecular target: FGFR3 of chick prechordal mesoderm cells (chick (endogenous in prechordal mesoderm cells)) (UniProt P18460)
Test: immunostaining of cells or tissue; isolated st6 chick prechordal mesoderm cells cultured until st8, incubated with proNodal-FLAG, detected with anti-FLAG; non-targeted cells

UniProt P18460, sequence (P18460 20-806): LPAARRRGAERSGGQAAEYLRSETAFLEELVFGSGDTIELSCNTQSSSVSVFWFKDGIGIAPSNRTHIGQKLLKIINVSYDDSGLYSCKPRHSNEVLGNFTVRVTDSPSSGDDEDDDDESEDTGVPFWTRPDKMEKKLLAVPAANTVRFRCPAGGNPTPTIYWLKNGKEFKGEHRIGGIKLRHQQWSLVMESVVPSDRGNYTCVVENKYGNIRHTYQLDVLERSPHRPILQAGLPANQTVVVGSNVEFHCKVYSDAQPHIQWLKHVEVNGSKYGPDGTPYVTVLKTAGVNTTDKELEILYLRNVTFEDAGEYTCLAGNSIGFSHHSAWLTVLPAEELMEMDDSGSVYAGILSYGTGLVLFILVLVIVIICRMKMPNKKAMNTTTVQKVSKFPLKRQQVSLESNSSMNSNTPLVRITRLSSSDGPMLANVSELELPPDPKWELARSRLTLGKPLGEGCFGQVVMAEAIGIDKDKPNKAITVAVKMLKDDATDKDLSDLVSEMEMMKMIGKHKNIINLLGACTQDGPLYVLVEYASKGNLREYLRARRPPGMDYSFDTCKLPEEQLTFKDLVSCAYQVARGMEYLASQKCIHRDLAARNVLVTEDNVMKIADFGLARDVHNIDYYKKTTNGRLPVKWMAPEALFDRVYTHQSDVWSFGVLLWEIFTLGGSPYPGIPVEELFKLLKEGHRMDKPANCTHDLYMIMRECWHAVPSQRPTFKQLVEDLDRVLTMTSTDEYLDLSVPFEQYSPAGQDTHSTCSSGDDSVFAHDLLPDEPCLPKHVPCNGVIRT

percent of DAPI+ nuclei closely associated with anti-FLAG: 79%
Substance: recombinant proNodal (recombinant Nodal cleavage mutant resistant to proprotein convertases), FLAG-tagged (from UniProt P43021 27-354) (ligand)
